Experimental data taken from patent US20080274055A1 (US Dept. of Health and Human Services, published 2008).

T1: carcinoembryonic antigen (CEA) (human, UniProt P06731 35-685)
T1 sequence (looked up): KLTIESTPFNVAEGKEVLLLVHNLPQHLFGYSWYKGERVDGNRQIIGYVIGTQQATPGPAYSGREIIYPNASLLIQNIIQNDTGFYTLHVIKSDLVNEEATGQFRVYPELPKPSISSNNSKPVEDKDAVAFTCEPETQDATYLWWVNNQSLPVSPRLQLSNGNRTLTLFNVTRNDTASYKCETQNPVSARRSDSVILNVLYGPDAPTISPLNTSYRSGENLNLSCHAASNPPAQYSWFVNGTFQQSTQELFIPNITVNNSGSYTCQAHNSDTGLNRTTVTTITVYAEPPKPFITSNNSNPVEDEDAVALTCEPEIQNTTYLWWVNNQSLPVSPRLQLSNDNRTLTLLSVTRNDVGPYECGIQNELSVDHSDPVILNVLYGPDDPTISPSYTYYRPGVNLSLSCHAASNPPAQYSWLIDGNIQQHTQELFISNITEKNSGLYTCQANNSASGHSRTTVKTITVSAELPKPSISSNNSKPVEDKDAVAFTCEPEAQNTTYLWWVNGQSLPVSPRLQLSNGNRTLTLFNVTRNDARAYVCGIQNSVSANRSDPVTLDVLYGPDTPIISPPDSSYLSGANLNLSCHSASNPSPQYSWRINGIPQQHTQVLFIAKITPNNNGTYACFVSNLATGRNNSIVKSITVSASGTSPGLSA


Legend:
[1] = biological target: anti-V region antibodies to COL-1 present in the serum of patient two; experiment: SPR competition, serum of patient two; reference HuCOL-1
[2] = biological target: anti-V region antibodies to COL-1 present in the serum of patient one; experiment: SPR competition, serum of patient one; reference HuCOL-1
[3] = biological target: T1, carcinoembryonic antigen (CEA); experiment: competition RIA against 125I-mCOL-1 on CEA; modified Scatchard
Protocol: (§1) Competition RIA: The relative antigen-binding affinity of HuCOL-1, HuCOL-1AbrCDR and HuCOL-1AbrCDR antibodies with framework-substitutions was determined using a competition RIA as described previously (De Pascalis et al., J Immunol., 169:3076-3084, 2002). Twenty-five μl of serial dilutions of the antibodies to be tested, as well as mCOL-1, chimeric COL-1, and HuCOL-1 (positive controls) and HuIgG (negative control), prepared in 1% BSA in PBS, were added to microtiter plates containing 10 ng of […] saturated with 5% BSA in PBS. ¹²⁵I-labeled mCOL-1 (100,000 cpm in 25 μl) was then added to each well. After an overnight incubation at 4° C., the plates were washed and the bound radioactivity was counted in a γ-scintillation counter.
(§2) Competition RIA experiments were performed to determine the relative CEA-binding affinity of chimeric COL-1, HuCOL-1, HuCOL-1AbrCDR, and the different HuCOL-1AbrCDR-derived antibodies. Serial dilutions of unlabeled antibodies were used to compete with the binding of ¹²⁵I-mCOL-1 (FIGS. 4A, 4B and 4C) to CEA.

[4] = biological target: T1, carcinoembryonic antigen (CEA); experiment: competition RIA against 125I-mCOL-1; reference of the fold not named
Protocol: as §1, §2

[5] = biological target: T1, carcinoembryonic antigen (CEA); experiment: competition RIA, unlabeled antibody against 125I-mCOL-1 on CEA; modified Scatchard
Protocol: as §1, §2

[6] = biological target: anti-V region antibodies to COL-1 present in the serum of patient two; experiment: SPR competition; soluble antibody against immobilized HuCOL-1 for serum anti-V region antibodies
[7] = biological target: anti-V region antibodies to COL-1 present in the serum of patient one; experiment: as above
[8] = biological target: anti-V region antibodies to COL-1 present in the serum of patient two; experiment: SPR competition; reference HuCOL-1; lower end tied to serum EM by Table IV (9.7 against 1.9)
[9] = biological target: anti-V region antibodies to COL-1 present in the serum of patient one; experiment: SPR competition; reference HuCOL-1; upper end tied to serum MB by Table IV (28.5 against 4.9)

| fold higher IC50 than HuCOL-1 [1] | fold higher IC50 than HuCOL-1 [2] | Ka [3] | Fold Difference [4] | Ka [5] | IC50 [6] | IC50 [7] | fold higher IC50 than HuCOL-1 [8] | fold higher IC50 than HuCOL-1 [9] | Binder |
| --- | --- | --- | --- | --- | --- | --- | --- | --- | --- |
| 1.5 fold | 1.5 fold | 2.32e+08 M⁻¹ | 1.2 fold | 2.3e+08 M⁻¹ | 2.9 nM | 6.9 nM |  |  | HuCOL-1AbrCDR (antibody, V domains shown, also called FRV1; HuCOL-1 24,25,27L/61H) VH: EVQLVQSGAEVVKPGASVKMSCKASGFNIKDYYMHWVKQRPEQGLEWIGWIDPENGDTEYAQKFQGKATMTTDTSTSTAYLELSSLRSEDTAVYYCNTRGLSTMITTRWFFDVWGAGTLVTVSS VL: DIVLTQSPASLAVSLGERATINCKSSQSVSASGYSYMHWYQQKPGQPPKLLIYLASNLQSGVPARFSGSGSGTDFTLTISSVQAEDVATYYCQHSRELPTFGGGTKLEIK |
|  |  | 3.04e+08 M⁻¹ | 0.9 fold | 3.04e+08 M⁻¹ | 9.7 nM | 28.5 nM | 5 to 6 fold | 5 to 6 fold | HuCOL-1AbrCDR framework variant 10 (FRV10) (antibody, V domains shown, also called HuCOL-1FRV10) VH: QVQLVQSGAEVKKPGASVKVSCKASGYNIKDYYMHWVRQRPEQGLEWMGWIDPENGDTEYAQKFQGRVTMTTDTSTSTVYMELSSLRSEDTAVYYCNTRGLSTMITTRWFFDVWGAGTLVTVSS VL: DIVLTQSPASLAVSLGERATINCKSSQSVSASGYSYMHWYQQKPGQPPKLLIYLASNLQSGVPARFSGSGSGTDFTLTISSVQAEDVATYYCQHSRELPTFGGGTKLEIK |
